Consider 39 molecules from patent US20230220057A1 (STAIDSON BEIJING BIOPHARMACEUTICALS, published 2023).

The target of the test is recombinantly produced human-NGF (human, UniProt P01138 122-241, limits assumed). The test can be described thus: ELISA, human NGF coated, IgG titrated. The method, then: NGF binding ELISA assay: In human NGF binding ELISA, Corning 3366 high binding 96 well plates were coated with recombinantly produced human-NGF at 1 μg per ml, 50 μl/well in 1×PBS, and incubated overnight at 4° C. The plates were washed and blocked with 250 μl of 1×PBS/1% BSA at least 30 minutes at room temperature. 50 μl of culture supernatants, after 1:1 diluted by the PBS/BSA diluent, or the purified antibodies diluted serially from a certain concentration with the diluent, were added per well, and incubated at 37° C. for 2 hours. After washing, a secondary antibody, goat anti-human IgG Fc AP (Southern biotech) was applied at a dilution of 1:3000 in PBS/BSA. The plates were incubated for 1 hour at RT and washed. After adding the PNPP substrate, the ODs at 405 nm were read.
Sequence of recombinantly produced human-NGF (P01138 122-241 limits assumed): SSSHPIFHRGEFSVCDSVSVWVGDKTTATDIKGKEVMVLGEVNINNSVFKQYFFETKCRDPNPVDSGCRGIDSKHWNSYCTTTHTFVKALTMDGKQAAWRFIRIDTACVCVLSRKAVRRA
NGF binding ELISA assay: NGF binding ELISA assay was performed as described in Example 1.
(An ELISA detects its analyte on a solid surface through an enzyme-linked reagent.)

Changes are numbered by the printed parent chain.

B1: Ab1 (antibody, human IgG1, V domains shown)
VH: EVQLVQSGAEVKKPGATVKISCKVSGYTFITYWISWVQQAPGKGLEWMGAIDPSDSDARYSPSFQGRVTITADTSTDTAYMELSSLRSEDTAVYYCAKSDPGYSGYSLLYGFDSWGQGTLVTVSS
VL: DIVMTQTPLSSPVTLGQPASISCRSSQSLVQRNGNTYLSWLQQRPGQPPRLLIYQVSNRYSGVPDRFSGSGAGTDFTLKISRVEAEDVGVYYCGQGAHLPLTFGQGTKVEIK
notes: Lead antibody; also called Abl
Regarding B1, the EC50 was determined as 0.0185 ng/mL.

B2: Ab31 (antibody, human IgG1, V domains shown)
VH: B1 VH with T74K
VL: B1 VL
In the case of B2, the EC50 worked out at 0.0502 ng/mL.

B3: Ab41 (antibody, human IgG1, V domains shown)
VH: EVQLVQSGAEVKKPGESLKISCKGSGYSFITYWISWVRQMPGKGLEWMGAIDPSDSDARYSPSFQGQVTISADKSISTAYLQWSSLKASDTAMYYCAKSDPGYSGYSLLYGFDSWGQGTLVTVSS
VL: B1 VL
Take B3: the EC50 was 0.0192 ng/mL.

B4: Ab18 (antibody, human IgG1, V domains shown)
VH: B1 VH with T28S
VL: B1 VL with T7S, S11L, L41Y, P48S, A72S
On to B4, for which the EC50 was 0.0271 ng/mL.

B5: Ab7 (antibody, human IgG1, V domains shown)
VH: B1 VH
VL: B1 VL with T7S, S11L, L41F, P48S, A72S
Take B5: the EC50 came out at 0.00988 ng/mL.

B6: Ab11 (antibody, human IgG1, V domains shown)
VH: B1 VH with T28S
VL: B1 VL
As to B6, the EC50 came to 0.032 ng/mL.

B7: Ab26 (antibody, human IgG1, V domains shown)
VH: B1 VH with T28S, T74K
VL: B1 VL with I2V, T7S, S11L, L41F, A72S
With B7, the EC50 turned out to be 0.0234 ng/mL.

B8: Ab5 (antibody, human IgG1, V domains shown)
VH: B1 VH
VL: B1 VL with I2V, T7S, S11L, L41Y, A72S
Take B8: the EC50 was 0.0139 ng/mL.

B9: Ab9 (antibody, human IgG1, V domains shown)
VH: B1 VH
VL: B1 VL with T7S, S11L, L41Y, A72S
Take B9: the EC50 worked out at 0.0876 ng/mL.

B10: Ab8 (antibody, human IgG1, V domains shown)
VH: B1 VH
VL: B1 VL with T7S, S11L, L41Y, P48S, A72S
For the molecule B10, the EC50 was 0.0205 ng/mL.

B11: Ab15 (antibody, human IgG1, V domains shown)
VH: B1 VH with T28S
VL: B1 VL with I2V, T7S, S11L, L41Y, A72S
With B11, the EC50 is 0.046 ng/mL.

B12: Ab23 (antibody, human IgG1, V domains shown)
VH: B1 VH with T28S, T74K
VL: B1 VL with I2V, T7S, S11L, L41F, P48S, A72S
As to B12, the EC50 is 0.0405 ng/mL.

B13: Ab14 (antibody, human IgG1, V domains shown)
VH: B1 VH with T28S
VL: B1 VL with I2V, T7S, S11L, L41Y, P48S, A72S
Regarding B13, the EC50 is 0.0351 ng/mL.

B14: Ab25 (antibody, human IgG1, V domains shown)
VH: B1 VH with T28S, T74K
VL: B1 VL with I2V, T7S, S11L, L41Y, A72S
B14: the EC50 turned out to be 0.0331 ng/mL.

B15: Ab12 (antibody, human IgG1, V domains shown)
VH: B1 VH with T28S
VL: B1 VL with L41Y
Regarding B15, the EC50 was 0.0365 ng/mL.

B16: Ab51 (antibody, human IgG1, V domains shown)
VH: B3 VH with G24I
VL: B1 VL
For the molecule B16, the EC50 was 0.0221 ng/mL.

B17: Ab28 (antibody, human IgG1, V domains shown)
VH: B1 VH with T28S, T74K
VL: B1 VL with T7S, S11L, L41Y, P48S, A72S
For B17, the EC50 was found to be 0.0331 ng/mL.

B18: Ab32 (antibody, human IgG1, V domains shown)
VH: B1 VH with T74K
VL: B1 VL with L41Y
As for B18, the EC50 stood at 0.0403 ng/mL.

B19: Ab35 (antibody, human IgG1, V domains shown)
VH: B1 VH with T74K
VL: B1 VL with I2V, T7S, S11L, L41Y, A72S
For B19, the EC50 is 0.0308 ng/mL.

B20: Ab2 (antibody, human IgG1, V domains shown)
VH: B1 VH
VL: B1 VL with L41Y
As to B20, the EC50 turned out to be 0.0197 ng/mL.

B21: Ab20 (antibody, human IgG1, V domains shown)
VH: B1 VH with T28S
VL: B1 VL with T7S, S11L, L41F, A72S
B21: the EC50 was found to be 0.0215 ng/mL.

B22: Ab24 (antibody, human IgG1, V domains shown)
VH: B1 VH with T28S, T74K
VL: B1 VL with I2V, T7S, S11L, L41Y, P48S, A72S
With B22, the concentration giving a half-maximal response (EC50) was 0.0399 ng/mL.

B23: Ab21 (antibody, human IgG1, V domains shown)
VH: B1 VH with T28S, T74K
VL: B1 VL
Take B23: the EC50 turned out to be 0.0403 ng/mL.

B24: Ab40 (antibody, human IgG1, V domains shown)
VH: B1 VH with T74K
VL: B1 VL with T7S, S11L, L41F, A72S
As for B24, the EC50 came to 0.0172 ng/mL.

B25: Ab19 (antibody, human IgG1, V domains shown)
VH: B1 VH with T28S
VL: B1 VL with T7S, S11L, L41Y, A72S
Turning to B25, the EC50 is 0.0324 ng/mL.

B26: Ab53 (antibody, human IgG1, V domains shown)
VH: B3 VH with G24I
VL: B1 VL with I2V, T7S, S11L, L41F, P48S, A72S
In the case of B26, the EC50 stood at 0.0482 ng/mL.

B27: Ab22 (antibody, human IgG1, V domains shown)
VH: B1 VH with T28S, T74K
VL: B1 VL with L41Y
Take B27: the EC50 amounted to 0.0382 ng/mL.

B28: Ab27 (antibody, human IgG1, V domains shown)
VH: B1 VH with T28S, T74K
VL: B1 VL with T7S, S11L, L41F, P48S, A72S
As to B28, the EC50 is 0.0206 ng/mL.

B29: Ab50 (antibody, human IgG1, V domains shown)
VH: B3 VH
VL: B1 VL with T7S, S11L, L41F, A72S
Regarding B29, the half-maximal effective concentration (EC50) came to 0.00629 ng/mL.

B30: Ab43 (antibody, human IgG1, V domains shown)
VH: B3 VH
VL: B1 VL with I2V, T7S, S11L, L41F, P48S, A72S
As for B30, the EC50 worked out at 0.0221 ng/mL.

B31: Ab17 (antibody, human IgG1, V domains shown)
VH: B1 VH with T28S
VL: B1 VL with T7S, S11L, L41F, P48S, A72S
B31: the EC50 stood at 0.016 ng/mL.

B32: Ab3 (antibody, human IgG1, V domains shown)
VH: B1 VH
VL: B1 VL with I2V, T7S, S11L, L41F, P48S, A72S
As to B32, the EC50 worked out at 0.017 ng/mL.

B33: Ab34 (antibody, human IgG1, V domains shown)
VH: B1 VH with T74K
VL: B1 VL with I2V, T7S, S11L, L41Y, P48S, A72S
Consider B33, for which the EC50 amounted to 0.11 ng/mL.

B34: Ab30 (antibody, human IgG1, V domains shown)
VH: B1 VH with T28S, T74K
VL: B1 VL with T7S, S11L, L41F, A72S
As for B34, the 50% effective concentration (EC50) amounted to 0.0254 ng/mL.

B35: Ab33 (antibody, human IgG1, V domains shown)
VH: B1 VH with T74K
VL: B1 VL with I2V, T7S, S11L, L41F, P48S, A72S
For B35, the EC50 turned out to be 0.0342 ng/mL.

B36: Ab29 (antibody, human IgG1, V domains shown)
VH: B1 VH with T28S, T74K
VL: B1 VL with T7S, S11L, L41Y, A72S
For the molecule B36, the EC50 stood at 0.0292 ng/mL.

B37: Ab39 (antibody, human IgG1, V domains shown)
VH: B1 VH with T74K
VL: B1 VL with T7S, S11L, L41Y, A72S
In the case of B37, the EC50 is 0.0208 ng/mL.

B38: Ab38 (antibody, human IgG1, V domains shown)
VH: B1 VH with T74K
VL: B1 VL with T7S, S11L, L41Y, P48S, A72S
Consider B38, for which the EC50 came out at 0.0252 ng/mL.

B39: Ab13 (antibody, human IgG1, V domains shown)
VH: B1 VH with T28S
VL: B1 VL with I2V, T7S, S11L, L41F, P48S, A72S
With B39, the concentration for a half-maximal effect (EC50) amounted to 0.043 ng/mL.

The term EC50 denotes the concentration that produces a half-maximal response.
